Reference: patent CN115505045A (MABWELL SHANGHAI BIOSCIENCE CO LTD, dated 2022)

T1: 鼠重组蛋白LAG-3(Cat:53069-M08H，北京义翘神州科技股份有限公司) (mouse, UniProt Q61790 24-442)
T1 construct: also called 小鼠LAG-3; 鼠LAG-3
T1 sequence (looked up): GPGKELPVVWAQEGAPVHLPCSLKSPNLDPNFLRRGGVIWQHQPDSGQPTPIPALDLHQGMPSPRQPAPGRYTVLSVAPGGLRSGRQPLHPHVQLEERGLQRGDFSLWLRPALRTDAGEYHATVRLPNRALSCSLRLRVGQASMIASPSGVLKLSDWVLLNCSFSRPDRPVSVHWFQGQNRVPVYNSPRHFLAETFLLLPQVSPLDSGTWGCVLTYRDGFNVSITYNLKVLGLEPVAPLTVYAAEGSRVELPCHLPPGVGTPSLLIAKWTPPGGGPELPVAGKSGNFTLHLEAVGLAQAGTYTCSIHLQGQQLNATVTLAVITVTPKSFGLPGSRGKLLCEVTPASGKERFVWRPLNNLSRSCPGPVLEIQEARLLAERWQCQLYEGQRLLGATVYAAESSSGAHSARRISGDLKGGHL

T2: LAG-3(NCBI登录号:NP_002277.4)全长, HEK293细胞表面 (human, UniProt P18627 23-525)
T2 construct: whole, on cells; also called HEK293-LAG-3; 细胞表面LAG-3
T2 sequence (looked up): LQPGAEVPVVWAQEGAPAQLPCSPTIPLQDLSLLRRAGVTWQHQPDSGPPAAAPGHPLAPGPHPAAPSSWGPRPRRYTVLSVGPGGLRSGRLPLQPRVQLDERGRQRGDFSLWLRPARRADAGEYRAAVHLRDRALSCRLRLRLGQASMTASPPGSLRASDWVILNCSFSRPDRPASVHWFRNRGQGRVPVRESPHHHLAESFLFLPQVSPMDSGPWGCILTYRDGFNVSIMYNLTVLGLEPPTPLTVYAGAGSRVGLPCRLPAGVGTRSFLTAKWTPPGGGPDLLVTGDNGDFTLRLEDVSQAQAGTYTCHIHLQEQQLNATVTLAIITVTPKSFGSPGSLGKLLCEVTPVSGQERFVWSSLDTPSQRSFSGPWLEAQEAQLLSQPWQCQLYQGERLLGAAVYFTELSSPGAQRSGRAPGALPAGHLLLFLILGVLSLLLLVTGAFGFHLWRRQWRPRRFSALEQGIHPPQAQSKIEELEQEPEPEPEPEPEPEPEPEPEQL

T3: 人LAG-3胞外区融合蛋白(义翘神州，Cat:16498-H08H) (human, UniProt P18627 23-450)
T3 construct: extracellular domain; also called 人重组蛋白LAG-3; 人LAG-3重组蛋白
T3 sequence (looked up): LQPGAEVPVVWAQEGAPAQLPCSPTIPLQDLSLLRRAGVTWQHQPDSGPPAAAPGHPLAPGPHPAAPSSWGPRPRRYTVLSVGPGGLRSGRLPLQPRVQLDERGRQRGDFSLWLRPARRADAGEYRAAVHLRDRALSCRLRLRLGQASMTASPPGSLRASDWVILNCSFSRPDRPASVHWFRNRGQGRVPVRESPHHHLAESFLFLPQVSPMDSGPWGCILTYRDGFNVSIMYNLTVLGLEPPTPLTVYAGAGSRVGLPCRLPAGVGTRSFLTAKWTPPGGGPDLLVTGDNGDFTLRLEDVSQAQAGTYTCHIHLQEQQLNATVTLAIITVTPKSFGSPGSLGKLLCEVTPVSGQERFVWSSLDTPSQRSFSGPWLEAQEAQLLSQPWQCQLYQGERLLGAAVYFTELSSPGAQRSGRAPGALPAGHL

T4: LAG-3-OFP(NCBI登录号:NP_002277.4) on HEK293细胞 (human, UniProt P18627 23-525)
T4 construct: whole, on cells; also called HEK-293-LAG3-OFP; HEK293-LAG-3
T4 sequence (looked up): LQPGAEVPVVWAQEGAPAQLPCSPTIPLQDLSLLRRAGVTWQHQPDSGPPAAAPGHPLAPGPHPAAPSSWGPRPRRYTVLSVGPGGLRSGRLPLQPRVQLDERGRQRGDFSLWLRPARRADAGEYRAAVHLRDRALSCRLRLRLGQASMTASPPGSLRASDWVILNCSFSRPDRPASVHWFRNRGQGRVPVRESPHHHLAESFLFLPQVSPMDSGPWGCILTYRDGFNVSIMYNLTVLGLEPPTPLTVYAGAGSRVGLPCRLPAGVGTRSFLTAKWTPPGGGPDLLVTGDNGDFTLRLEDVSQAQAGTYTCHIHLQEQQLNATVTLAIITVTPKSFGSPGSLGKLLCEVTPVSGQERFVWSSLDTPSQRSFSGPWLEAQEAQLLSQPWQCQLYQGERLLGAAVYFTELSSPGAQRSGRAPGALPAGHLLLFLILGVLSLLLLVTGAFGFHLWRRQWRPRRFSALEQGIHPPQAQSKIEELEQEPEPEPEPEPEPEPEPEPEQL

B1: 对照抗体BMS-986016 (antibody, human IgG4 S228P, kappa, V domains shown)
VH: QVQLQQWGAGLLKPSETLSLTCAVYGGSFSDYYWNWIRQPPGKGLEWIGEINHRGSTNSNPSLKSRVTLSLDTSKNQFSLKLRSVTAADTAVYYCAFGYSDYEYNWFDPWGQGTLVTVSS
VL: EIVLTQSPATLSLSPGERATLSCRASQSISSYLAWYQQKPGQAPRLLIYDASNRATGIPARFSGSGSGTDFTLTISSLEPEDFAVYYCQQRSNWPLTFGQGTNLEIKR
B2: 人源化抗体hz7F10 (antibody, human IgG1, kappa, L234A L235A, V domains shown)
VH: EVQLVQSGAEVKKPGASVKVSCKASGVNIKDDYMHWVRQAPGQGLEWIGRIDPEDVETKYDPKFQGRVTITADTSTSTAYMELSSLRSEDTAVYYCARSFYSNYVNYFDQWGQGTLVTVSS
VL: DIQMTQSPSSLSASVGDRVTITCKASENVGTYVSWFQQKPGKAPKLLIYGASNRYTGVPSRFSGSGSGTDFTLTISSLQPEDFATYYCGQSYSYPYTFGQGTKLEIKR
notes: Humanised from mouse antibody 7F10; also called 裸抗体hz7F10; 抗LAG-3抗体hz7F10
B3: hz7F10-hzB6 (bispecific antibody, human IgG1, kappa, L234A L235A)
heavy: not shown
light: DIQMTQSPSSLSASVGDRVTITCKASENVGTYVSWFQQKPGKAPKLLIYGASNRYTGVPSRFSGSGSGTDFTLTISSLQPEDFATYYCGQSYSYPYTFGQGTKLEIKRTVAAPSVFIFPPSDEQLKSGTASVVCLLNNFYPREAKVQWKVDNALQSGNSQESVTEQDSKDSTYSLSSTLTLSKADYEKHKVYACEVTHQGLSSPVTKSFNRGEC
notes: Expressed transiently in HEK293 cells; also called 抗人LAG-3/PD-L1双特异抗体; LAG-3/PD-L1双特异抗体
B4: hz7F10-hzF2 (bispecific antibody, human IgG1, kappa, L234A L235A)
heavy: not shown
light: DIQMTQSPSSLSASVGDRVTITCKASENVGTYVSWFQQKPGKAPKLLIYGASNRYTGVPSRFSGSGSGTDFTLTISSLQPEDFATYYCGQSYSYPYTFGQGTKLEIKRTVAAPSVFIFPPSDEQLKSGTASVVCLLNNFYPREAKVQWKVDNALQSGNSQESVTEQDSKDSTYSLSSTLTLSKADYEKHKVYACEVTHQGLSSPVTKSFNRGEC
notes: as for B3

Assays:
[1] = biological target: T1, 鼠重组蛋白LAG-3(Cat:53069-M08H，北京义翘神州科技股份有限公司 …; test: ELISA, antigen coated at 1 μg/mL
[2] = biological target: T2, LAG-3(NCBI登录号:NP_002277.4)全长, HEK293细胞表面; test: flow cytometry on HEK293 cells transfected with full-length LAG-3
[3] = biological target: T3, 人LAG-3胞外区融合蛋白(义翘神州，Cat:16498-H08H); test: SPR (Reichert 4SPR), antibody captured by anti-human Fc, antigen in flow
[4] = biological target: T5, 鼠PD-L1(Cat:50010-M08H，北京义翘神州科技股份有限公司) (mouse, UniProt Q9EP73 19-238); test: ELISA, antigen coated at 1 μg/mL
T5 construct: also called 小鼠PD-L1

肿瘤细胞MBA-MD-231细胞表面的PD-L1 = biological target: T6, 肿瘤细胞MBA-MD-231细胞表面的PD-L1 (UniProt Q9NZQ7 19-290, limits assumed); test: flow cytometry on MBA-MD-231 tumour cells
T6 construct: whole, on cells; also called 细胞表面PD-L1

[5] = biological target: T7, 人PD-L1 on CHO-PD-L1-CD3L细胞 (human, UniProt Q9NZQ7 19-290); test: flow cytometry, double-positive cells (CFSE-labelled CHO-PD-L1-CD3L with HEK-293-LAG3-OFP)
T7 construct: whole, on cells; also called 高表达人PD-L1的CHO细胞

[6] = biological target: T4, LAG-3-OFP(NCBI登录号:NP_002277.4) on …; test: as above

T6 sequence (Q9NZQ7 19-290 limits assumed): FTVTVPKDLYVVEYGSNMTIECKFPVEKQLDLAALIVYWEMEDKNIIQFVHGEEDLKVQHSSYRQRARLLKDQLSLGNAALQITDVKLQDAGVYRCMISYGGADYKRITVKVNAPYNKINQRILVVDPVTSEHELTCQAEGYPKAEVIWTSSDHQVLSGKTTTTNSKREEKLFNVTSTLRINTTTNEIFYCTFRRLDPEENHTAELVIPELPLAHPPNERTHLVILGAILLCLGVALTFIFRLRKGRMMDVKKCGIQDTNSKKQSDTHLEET
T5 sequence (Q9EP73 19-238 limits assumed, stated change not applied): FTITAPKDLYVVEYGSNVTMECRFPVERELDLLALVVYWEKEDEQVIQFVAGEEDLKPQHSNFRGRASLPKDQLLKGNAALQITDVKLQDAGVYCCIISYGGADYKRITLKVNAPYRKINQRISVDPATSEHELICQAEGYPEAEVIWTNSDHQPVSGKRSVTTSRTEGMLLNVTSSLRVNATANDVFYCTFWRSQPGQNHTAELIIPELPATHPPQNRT
T7 sequence (Q9NZQ7 19-290): as the sequence (Q9NZQ7 19-290 limits assumed) above

| binding result [1] | binding result [2] | binding result [3] | binding result [4] | binding result (肿瘤细胞MBA-MD-231细胞表面的PD-L1) | binding result [5] | binding result [6] | Binder |
| --- | --- | --- | --- | --- | --- | --- | --- |
| no binding (tested: 1μg/mL) |  |  |  |  |  |  | B1 |
|  | binds | binds |  |  |  |  | B2 |
| no binding (tested: 1μg/mL) | binds | binds | no binding (tested: 1μg/mL) | binds | binds | binds | B3 |
| no binding (tested: 1μg/mL) | binds | binds | no binding (tested: 1μg/mL) | binds |  |  | B4 |
